In US20240218342A1, “SITE-SPECIFIC GLYCAN REMODELING OF LYSOSOMAL ENZYMES AND APPLICATIONS THEREOF” (priority 2021, published 2024) one finds transglycosylation of oxazoline 1 to the GlcNAc-peptide, yield of glycopeptide 66 data, which are given here for 1 substance.

The test concerns the target GlcNAc-peptide derived from rhGAA containing N470 glycosite (human).

Sequence of GlcNAc-peptide derived from rhGAA containing N470 glycosite (human) (peptide, as listed by the source): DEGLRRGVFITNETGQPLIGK

For Endo A-N171A (enzyme), the transglycosylation of oxazoline 1 to the GlcNAc-peptide, yield of glycopeptide 66 was 53%.
